# Test results taken from patent publication US12139520B2 (priority 2020, dated 2024).
# Numbered stars: 1 amine (or outer) side, 2 acyl side, 3 side chain; on linkers, the order of the positions; unused ones are H or OH. Bridge positions count the residues as written; N and C are the ends. Square brackets hold non-standard residues; d marks the D form. Side chains are listed from the residue outwards. Ends that are not written are not given here. * marks the point of attachment. C20 diacid = O=C(O)CCCCCCCCCCCCCCCCCCC(=O)*; γGlu = O=C(O)[C@H](CCC(=O)[*:2])N[*:1]; Hyp = O=C(O)[C@@H]1C[C@@H](O)CN1; NMeI = CC[C@H](C)[C@H](NC)C(=O)O; Aad = N[C@@H](CCCC(=O)O)C(=O)O; AEEA = NCCOCCOCC(=O)O; Sar = CNCC(=O)O
# T1: hAMY3R (human, UniProt P30988)
# T1 sequence 1: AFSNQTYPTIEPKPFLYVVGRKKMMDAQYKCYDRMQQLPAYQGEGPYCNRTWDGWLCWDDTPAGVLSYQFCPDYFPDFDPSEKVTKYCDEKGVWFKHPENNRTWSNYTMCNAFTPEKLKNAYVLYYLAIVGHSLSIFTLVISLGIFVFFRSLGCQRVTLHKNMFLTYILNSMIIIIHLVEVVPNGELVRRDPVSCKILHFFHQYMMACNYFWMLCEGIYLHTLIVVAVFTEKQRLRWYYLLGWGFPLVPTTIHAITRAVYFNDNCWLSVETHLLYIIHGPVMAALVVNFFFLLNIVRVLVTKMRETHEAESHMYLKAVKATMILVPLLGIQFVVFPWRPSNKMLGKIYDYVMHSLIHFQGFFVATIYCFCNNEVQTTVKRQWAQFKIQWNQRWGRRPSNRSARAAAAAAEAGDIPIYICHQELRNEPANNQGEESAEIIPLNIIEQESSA
# T1 sequence 2: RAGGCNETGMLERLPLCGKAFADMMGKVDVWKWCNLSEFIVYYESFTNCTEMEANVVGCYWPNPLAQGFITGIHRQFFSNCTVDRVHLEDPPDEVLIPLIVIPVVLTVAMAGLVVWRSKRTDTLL
# What was measured:
# hAM1R = hAM1R (human, UniProt Q16602); assay: cell-based or functional assay
# hAMY3R = target: T1, hAMY3R; assay: cell-based or functional assay
hAM1R EC50 (cAMP) (hAM1R),hAMY3R EC50 (cAMP) (hAMY3R),Binder
> 5000 nM,0.011 nM,{C20 diacid-γGlu}-KCNTATCTVQRLAEQIYQFTDKDKDNVAPPTNVGSNG[Hyp]-NH2 (disulfide 2-7 (inferred); ends not checked) [SEQ ID NO: 51]
> 5000 nM,0.006 nM,KCNTSTCTVARLADQITQFSNKDKAQVSPPTEVGPNS[Hyp]-NH2 (disulfide 2-7 (inferred); ends not checked) [SEQ ID NO: 8]
> 5000 nM,0.006 nM,KCNTATCTVQRLAAQIYQFTDKDKDNVAPPTNVGSNG[Hyp]-NH2 (disulfide 2-7 (inferred); ends not checked) [SEQ ID NO: 7]
> 5000 nM,0.013 nM,{C20 diacid-γGlu}-KCNTATCTVQRLAEQIYQFTDKDKDNVAPPTQVGSNG[Hyp]-NH2 (disulfide 2-7 (inferred); not fully specified; ends not checked) [SEQ ID NO: 73]
> 5000 nM,0.012 nM,KCNTATCTVQRLAEQIYQFTDKDKDNVSPPTNVGSNG[Hyp]-NH2 (disulfide 2-7 (inferred); ends not checked) [SEQ ID NO: 66]
> 5000 nM,0.011 nM,KCNTATCTVQRLAHQIYQFTDKDKDAVAPPTNVGSNG[Hyp]-NH2 (disulfide 2-7 (inferred); ends not checked) [SEQ ID NO: 52]
> 5000 nM,0.013 nM,KCNTATCTVQRLAHQIYQFTDKDKDNVAPPTNVGSNG[Hyp]-NH2 (disulfide 2-7 (inferred); ends not checked) [SEQ ID NO: 75]
> 5000 nM,0.012 nM,{C20 diacid-γGlu}-KCNTATCTVQRLAHQIYQFTDKDKDNVAPPTKVGSNG[Hyp]-NH2 (disulfide 2-7 (inferred); not fully specified; ends not checked) [SEQ ID NO: 60]
2980 nM,0.013 nM,GCRFGTCTVQRLAHQIYQFTDKDKDNVAPRTNVGPQG[Hyp]-NH2 (disulfide 2-7 (inferred); ends not checked) [SEQ ID NO: 70]
> 5000 nM,0.012 nM,{C20 diacid-γGlu}-KCNTATCTVQRLAHQIAQFTDKDKDNVAPPTNVGSNG[Hyp]-NH2 (disulfide 2-7 (inferred); not fully specified; ends not checked) [SEQ ID NO: 61]
255 nM,0.013 nM,{C20 diacid-γGlu}-KCNFATCTVQRLAHQIYQFTDKDKDNVAPPTEVGSNG[Hyp]-NH2 (disulfide 2-7 (inferred); not fully specified; ends not checked) [SEQ ID NO: 68]
116 nM,0.013 nM,{C20 diacid-γGlu}-KCNFATCTVQRLAHQIYQFTDKDKDNVAPRTEVGSNG[Hyp]-NH2 (disulfide 2-7 (inferred); not fully specified; ends not checked) [SEQ ID NO: 67]
> 5000 nM,0.012 nM,{C20 diacid-γGlu}-KCNTSTCTVQRLAHQIAQFTDKDKDNVAPPTNVGSNG[Hyp]-NH2 (disulfide 2-7 (inferred); not fully specified; ends not checked) [SEQ ID NO: 62]
> 5000 nM,0.012 nM,KCNTATCTVQRLAHQIYQFTDADKDNVAPPTNVGSNG[Hyp]-NH2 (disulfide 2-7 (inferred); ends not checked) [SEQ ID NO: 64]
> 5000 nM,0.013 nM,{C20 diacid-γGlu}-KCNTATCTVQRLAHQIAQYTDKDKDNVAPPTNVGSNG[Hyp]-NH2 (disulfide 2-7 (inferred); not fully specified; ends not checked) [SEQ ID NO: 71]
680 nM,0.013 nM,{C20 diacid-γGlu}-KCNTATCTVQRLAHQIAQFTDKDKDNVAPPTNVGSNS[Hyp]-NH2 (disulfide 2-7 (inferred); not fully specified; ends not checked) [SEQ ID NO: 69]

hAM1R EC50 (cAMP) (hAM1R),hAMY3R EC50 (cAMP) (hAMY3R),Binder
> 5000 nM,0.012 nM,{C20 diacid-γGlu}-KCNTATCTVQRLAEQIYQFTDKDKDNVAPPTAVGSNG[Hyp]-NH2 (disulfide 2-7 (inferred); not fully specified; ends not checked) [SEQ ID NO: 63]
> 5000 nM,0.011 nM,{C20 diacid-γGlu}-KCNTSTCTVQRLAHQIYQFTDKDKDNVAPPTNVGSNG[Hyp]-NH2 (disulfide 2-7 (inferred); ends not checked) [SEQ ID NO: 50]
> 5000 nM,0.013 nM,KCQTATCTVQRLAEQIYQFTDKDKDNVAPPTNVGSNGX (not fully specified; C20DA-yGlu at N-terminal; Hyp at X38) [SEQ ID NO: 72]
> 5000 nM,0.012 nM,KCNTATCATQRLANFLVHSSNNFGAILSSTKVGSNTY [SEQ ID NO: 58]
> 5000 nM,0.012 nM,KCNTATCATQRLANFLVHSSNNFGAILPSTKVGSNGY [SEQ ID NO: 59]
63.8 nM,0.012 nM,{C20 diacid-γGlu}-KCNTATCTVERLAHQIYQFTDKDKDNVAPPTNVGSNG[Hyp]-NH2 (disulfide 2-7 (inferred); ends not checked) [SEQ ID NO: 55]
> 5000 nM,0.013 nM,KCNTATCTVQRLAK([AEEA-AEEA-γGlu-C20 diacid])QIYQFTDKDKDNVAPPTNVGSNG[Hyp]-NH2 (disulfide 2-7 (inferred); not fully specified; ends not checked) [SEQ ID NO: 74]
> 5000 nM,0.006 nM,KCNTATCTVQRLAEQIYQFTDKDKDNVAPPTNVGSK([AEEA-AEEA-γGlu-C20 diacid])G[Hyp]-NH2 (disulfide 2-7 (inferred); ends not checked) [SEQ ID NO: 6]
> 5000 nM,0.011 nM,KCNTATCTVQRLAHQIYQFTDKDKDNVAAPTNVGSNG[Hyp]-NH2 (disulfide 2-7 (inferred); ends not checked) [SEQ ID NO: 53]
> 5000 nM,0.012 nM,KCNTATCTVQRLAHQIYQFDKDKDNVAPPTNVGSNG[Hyp]-NH2 (disulfide 2-7 (inferred); ends not checked) [SEQ ID NO: 65]
> 5000 nM,0.006 nM,{C20 diacid-γGlu}-KCNTATCTVQRLADQIYQFTDKDKDNVAPPTNVGSNG[Hyp]-NH2 (disulfide 2-7 (inferred); ends not checked) [SEQ ID NO: 5]
46.2 nM,0.012 nM,GCRFGTCTVQRLAHFLYQFTDKDKDNVAPRTNVGPQGY [SEQ ID NO: 54]
103 nM,0.012 nM,GCRFGTCTVQRLAHFLYQFTDKDKDNVAPRTNVGSNTY [SEQ ID NO: 56]
590 nM,0.012 nM,{C20 diacid-γGlu}-KCNTATCTVQRLAHQIYQFSDKDKDNVAPPTNVGSNG[Hyp]-NH2 (disulfide 2-7 (inferred); ends not checked) [SEQ ID NO: 57]
> 5000 nM,0.014 nM,{C20 diacid-γGlu}-RCGTATCATERLA[Aad]FLQRSSF[Sar]A[NMeI]LSSTEVGSNT[Hyp]-NH2 (disulfide 2-7 (inferred); not fully specified; ends not checked) [SEQ ID NO: 76]
